Data taken from paper PMC2120494.

Biological target: R-Ras or R-Ras(38V)
Assay: co-IP

## Raf-1 kinase, baculovirus-produced (from UniProt P04049 1-648) (enzyme)
  percent of total Raf co-immunoprecipitated: 10 to 20%
